Molecular target: T1, human Nectin-4 protein (human, UniProt Q96NY8 32-349)
T1 construct: Purified protein used for coating in ELISA and as analyte in Octet; also called human Nectin-4 antigen
T1 sequence (looked up): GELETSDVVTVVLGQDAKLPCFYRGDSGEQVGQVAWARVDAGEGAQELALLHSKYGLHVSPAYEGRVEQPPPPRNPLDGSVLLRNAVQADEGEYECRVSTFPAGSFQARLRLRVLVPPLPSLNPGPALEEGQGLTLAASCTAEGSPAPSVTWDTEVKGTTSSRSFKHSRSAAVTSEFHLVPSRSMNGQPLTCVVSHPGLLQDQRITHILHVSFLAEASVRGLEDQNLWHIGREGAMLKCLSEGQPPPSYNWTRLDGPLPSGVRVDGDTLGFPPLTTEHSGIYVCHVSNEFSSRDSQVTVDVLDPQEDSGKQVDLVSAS
Assay: ELISA, coated human Nectin-4, anti-human-HRP
Description: The Nectin family includes members of Nectin-1, Nectin-2, Nectin-3 and Nectin-4, and the members share a sequence identity of about 25%, but have similar structure and function. […]

B1: anti-human Nectin-4 humanized monoclonal antibody 56HZ (antibody, human IgG1, kappa, V domains shown)
VH: QVQLQESGPGLVKPSQTLSLTCTVSGYFNSITSDYDWHWIRHHPGKGLEWMGYISFSGRTYYNPSLKSRVTISHDTSKNQFSLKLSSVTAADTAVYYCARGNYDGFDYWGQGTLVTVSS
VL: DIVLTQSPATLSLSPGERATLSCRASQNIGTSIHWYQHKPGQSPRLLIKFASESISGIPARFSGSGSGTDFTLTISSLEPEDFAVYYCQQSKSWPTYTFGGGTKVEIKR
notes: Human IgG1 heavy chain constant region, human kappa light chain constant region; expressed in CHO-E cells
EC50 (read off the curve): ~6 ng/mL
